Results taken from patent US20100317566A1 (MOREHOUSE SCHOOL OF MEDICINE, published 2010).

How the values were obtained:
Test in all cases: FLAG-peptide resin pulldown from Jurkat lysate, SDS-PAGE, mass spectrometry
Vimentin = molecular target: T1, Vimentin (UniProt P08670 2-466)
T1 construct: Endogenous protein pulled down from Jurkat cell lysate, identified by mass spectrometry

HSC70 = molecular target: T2, HSC70 (UniProt P11142 2-646)
T2 construct: Endogenous protein pulled down from Jurkat cell lysate, identified by mass spectrometry

Mortalin/GRP75 = molecular target: T3, Mortalin/GRP75 (UniProt P38646 47-679)
T3 construct: Endogenous protein pulled down from Jurkat cell lysate, identified by mass spectrometry and by Western blot (~75 kDa); also called glucose-regulated protein 75

GRP78 = molecular target: T4, GRP78 (UniProt P11021 19-654)
T4 construct: Endogenous protein pulled down from Jurkat cell lysate, identified by mass spectrometry

Measured: binding result

T2 sequence (P11142 2-646 limits assumed): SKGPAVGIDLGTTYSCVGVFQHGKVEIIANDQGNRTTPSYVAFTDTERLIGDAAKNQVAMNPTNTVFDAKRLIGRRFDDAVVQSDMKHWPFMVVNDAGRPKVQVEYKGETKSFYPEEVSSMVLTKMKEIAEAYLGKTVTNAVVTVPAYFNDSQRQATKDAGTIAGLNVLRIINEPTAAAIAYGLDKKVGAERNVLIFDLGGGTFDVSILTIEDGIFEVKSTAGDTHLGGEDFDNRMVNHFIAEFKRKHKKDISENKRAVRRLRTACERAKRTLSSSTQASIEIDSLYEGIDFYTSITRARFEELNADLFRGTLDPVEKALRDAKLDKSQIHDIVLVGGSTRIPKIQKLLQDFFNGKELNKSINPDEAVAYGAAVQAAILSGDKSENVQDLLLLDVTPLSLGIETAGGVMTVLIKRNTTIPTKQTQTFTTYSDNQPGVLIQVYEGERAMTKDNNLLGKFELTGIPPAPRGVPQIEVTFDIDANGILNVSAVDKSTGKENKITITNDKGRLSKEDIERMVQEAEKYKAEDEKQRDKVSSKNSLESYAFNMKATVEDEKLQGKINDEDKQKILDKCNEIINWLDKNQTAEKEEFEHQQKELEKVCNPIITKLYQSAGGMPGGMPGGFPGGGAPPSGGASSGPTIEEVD
T3 sequence (P38646 47-679 limits assumed): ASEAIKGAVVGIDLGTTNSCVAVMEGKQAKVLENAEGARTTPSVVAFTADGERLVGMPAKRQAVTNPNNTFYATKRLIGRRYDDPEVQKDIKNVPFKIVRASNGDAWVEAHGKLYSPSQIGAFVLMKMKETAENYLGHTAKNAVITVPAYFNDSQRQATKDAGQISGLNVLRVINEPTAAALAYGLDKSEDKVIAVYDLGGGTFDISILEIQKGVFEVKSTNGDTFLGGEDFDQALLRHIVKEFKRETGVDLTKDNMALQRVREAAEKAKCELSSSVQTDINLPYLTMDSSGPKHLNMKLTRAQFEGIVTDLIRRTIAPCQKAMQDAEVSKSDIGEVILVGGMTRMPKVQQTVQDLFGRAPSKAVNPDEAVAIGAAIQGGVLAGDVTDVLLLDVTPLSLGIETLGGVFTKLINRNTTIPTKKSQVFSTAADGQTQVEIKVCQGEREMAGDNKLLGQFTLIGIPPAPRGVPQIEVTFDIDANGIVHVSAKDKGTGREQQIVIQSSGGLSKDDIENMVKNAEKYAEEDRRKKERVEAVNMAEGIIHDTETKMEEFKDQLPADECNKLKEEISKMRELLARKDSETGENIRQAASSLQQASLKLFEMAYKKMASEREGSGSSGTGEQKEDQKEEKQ
T1 sequence (P08670 2-466 limits assumed): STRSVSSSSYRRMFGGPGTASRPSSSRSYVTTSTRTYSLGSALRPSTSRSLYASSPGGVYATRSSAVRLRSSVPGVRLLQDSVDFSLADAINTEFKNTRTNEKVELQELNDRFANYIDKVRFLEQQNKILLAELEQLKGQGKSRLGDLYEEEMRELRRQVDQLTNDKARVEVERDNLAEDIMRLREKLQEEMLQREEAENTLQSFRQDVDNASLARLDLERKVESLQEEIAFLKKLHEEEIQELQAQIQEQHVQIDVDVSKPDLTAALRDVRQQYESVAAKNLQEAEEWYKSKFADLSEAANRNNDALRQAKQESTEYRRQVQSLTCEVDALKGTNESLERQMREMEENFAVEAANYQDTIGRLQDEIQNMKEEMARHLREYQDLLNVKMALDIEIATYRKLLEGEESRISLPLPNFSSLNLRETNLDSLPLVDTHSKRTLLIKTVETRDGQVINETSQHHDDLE
T4 sequence (P11021 19-654 limits assumed): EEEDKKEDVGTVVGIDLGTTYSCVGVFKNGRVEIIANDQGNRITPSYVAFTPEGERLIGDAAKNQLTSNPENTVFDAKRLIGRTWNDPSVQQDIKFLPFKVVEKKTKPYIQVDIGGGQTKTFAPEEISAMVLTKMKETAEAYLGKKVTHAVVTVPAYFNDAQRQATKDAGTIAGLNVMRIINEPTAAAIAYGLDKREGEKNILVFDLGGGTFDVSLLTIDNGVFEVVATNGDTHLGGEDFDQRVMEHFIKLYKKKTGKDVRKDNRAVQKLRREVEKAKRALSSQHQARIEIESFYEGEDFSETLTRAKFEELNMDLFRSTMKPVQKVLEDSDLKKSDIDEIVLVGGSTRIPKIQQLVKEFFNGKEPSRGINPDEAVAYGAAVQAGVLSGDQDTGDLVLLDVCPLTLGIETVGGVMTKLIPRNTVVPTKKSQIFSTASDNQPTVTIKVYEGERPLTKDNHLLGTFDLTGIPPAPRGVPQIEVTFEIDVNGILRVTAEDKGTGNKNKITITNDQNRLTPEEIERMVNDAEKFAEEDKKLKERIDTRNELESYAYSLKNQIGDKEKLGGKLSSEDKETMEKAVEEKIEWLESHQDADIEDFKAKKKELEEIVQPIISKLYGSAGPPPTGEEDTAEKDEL

B1: HIV-1 NefSMRmt peptide (H2N-AGFPVAAAGFPVDYKDDDDK-OH) (peptide)
peptide: H-AGFPVAAAGFPVDYKDDDDK-OH
notes: Made commercially; also called SMRmut; HIV-1 NefSMRmut
no binding: all assays above
